Laboratory results taken from patent US20040009511A1, “Identification of compounds which stimulate bone formation using a cell-based screening assay targeting BMP signaling” (priority 2002, published 2004).

Assays:
[1] = system: 9×SBE-6×OSE2-OC-luc reporter construct in 2T3 C-17 cells; assay: Luciferase assay, 9×SBE-6×OSE2-OC-luc reporter stably transfected in 2T3 clone C-17; format: cell-based; parameters: Luciferase Activity: unit not given here; details: for Effect on luciferase activity of the reporter construct: 2T3 C-17 cells
Protocol: (§1) An oligonucleotide containing 9 copies of Smad1 response element (9×SBE) and 6 copies of Cbfa1 response element (6×OSE2) was synthesized in the DNA laboratory at University of Texas Health Science Center at San Antonio. The osteocalcin basal promoter (OC, −155/+1) was amplified by Polymerase Chain Reaction (PCR) using mouse genomic DNA as a template and cloned into pGL3 vector. An 9×SBE-6×OSE2 oligonucleotide was cloned upstream of osteocalcin basal promoter.
(§2) C2C12 and 2T3 cells were plated in 6-well culture plates at densities of 4×10^5 and 2×10^5 cells/well and cultured with DMEM or α minimal essential medium (α MEM) supplemented with 10% FCS for 24 hours. A 9×SBE-6×OSE2-OC-luc-reporter construct (2 μg/well) was co-transfected with pcDNA3 empty vector (0.2 mg/well) in C2C12 and 2T3 cells using lipofactamine plus reagents (Gibco/BRL). Forty eight hours later, G418 (200 μg/ml) was added to the culture plates. Four weeks after G418 selection, the G418 resistant cells were plated in 96-well plates at the density of 1 cell/well and cloned by limiting dilution method.
(§3) C2C12 and 2T3 cells, in which 9×SBE-6×OSE2-OC-luc-reporter construct was stably transfected, were plated in 96-well culture plates at densities of 1×10^4 and 0.5×10^4 cells/well and cultured for 24 hours. The medium was changed to fresh medium supplemented with 2% FCS and different growth factors or hormone were added to culture medium for 24 hours or different compounds were added to culture medium for 2, 6, 12, 24 and 48 hours. The cell lysates were extracted and luciferase activities were determined by luciferase assay kit (Promega, Madison, Wis.) using a Luminometer.
(§4) At the end of the incubation, the cell lysates were extracted using lysis buffer and luciferase activities were measured using a luciferase assay kit (Promega).

[2] = system: BMP production in MG-63 cells; assay: Conditioned medium of treated MG-63 cells tested on 2T3 C-17 reporter cells; format: cell-based, human; details: MG-63 treated 1 and 5 hours, washed, 24 hour CM; 2T3 C-17 treated with CM 48 hours
Protocol: 2T3 C-17 cells were then treated with said CM for 48 hours.

[3] = system: 9×SBE-6×OSE2-OC-luc reporter construct in C2C12 C-10-62 cells; assay: Luciferase assay, 9×SBE-6×OSE2-OC-luc reporter stably transfected in C2C12 clone C-10-62; format: cell-based; details: 24 hours
Protocol: as §1, §2, §3, §4

[4] = system: 9×SBE-6×OSE2-OC-luc reporter construct; assay: Luciferase assay, 9×SBE-6×OSE2-OC-luc reporter construct, cells not specified; format: cell-based; details: stimulation of luciferase activity; stated for C2C12 C-10-62 and 2T3 C-17 without distinction
Source text: as §1, §3
Further, a reporter construct which contains multiple copies of both Smad1 (SBE) and Cbfa1 (OSE2) response elements (9×SBE-6×OSE2-OC-luc) was made.

[5] = Epoxomicin 0.0156 μM, cell type not given
[6] = Epoxomicin 0.0625 μM, cell type not given
[7] = Epoxomicin 0.125 μM, cell type not given
[8] = Epoxomicin 0.25 μM, cell type not given
[9] = Epoxomicin 0.5 μM, cell type not given
[10] = Epoxomicin 1 μM, cell type not given
[11] = BMP-4 0.049 ng/ml, 24 hours, 2T3 clone 17
[12] = BMP-4 0.098 ng/ml, 24 hours, 2T3 clone 17
[13] = BMP-4 0.195 ng/ml, 24 hours, 2T3 clone 17
[14] = BMP-4 0.39 ng/ml, 24 hours, 2T3 clone 17
[15] = BMP-4 0.78 ng/ml, 24 hours, 2T3 clone 17
[16] = BMP-4 1.56 ng/ml, 24 hours, 2T3 clone 17
[17] = BMP-4 3.125 ng/ml, 24 hours, 2T3 clone 17
[18] = BMP-4 6.25 ng/ml, 24 hours, 2T3 clone 17
[19] = BMP-4 12.5 ng/ml, 24 hours, 2T3 clone 17
[20] = BMP-4 25 ng/ml, 24 hours, 2T3 clone 17
[21] = BMP-4 50 ng/ml, 24 hours, 2T3 clone 17
[22] = BMP-4 100 ng/ml, 24 hours, 2T3 clone 17
[23] = BMP-7 1.95 ng/ml, 24 hours, 2T3 clone 17
[24] = BMP-7 3.91 ng/ml, 24 hours, 2T3 clone 17
[25] = BMP-7 7.81 ng/ml, 24 hours, 2T3 clone 17
[26] = BMP-7 15.625 ng/ml, 24 hours, 2T3 clone 17
[27] = BMP-7 31.25 ng/ml, 24 hours, 2T3 clone 17
[28] = BMP-7 62.5 ng/ml, 24 hours, 2T3 clone 17
[29] = BMP-7 125 ng/ml, 24 hours, 2T3 clone 17
[30] = BMP-7 250 ng/ml, 24 hours, 2T3 clone 17
[31] = BMP-7 500 ng/ml, 24 hours, 2T3 clone 17
[32] = BMP-7 1000 ng/ml, 24 hours, 2T3 clone 17

For `CC[C@H](C)[C@H](NC(=O)[C@H]([C@@H](C)CC)N(C)C(C)=O)C(=O)N[C@H](C(=O)N[C@@H](CC(C)C)C(=O)[C@@]1(C)CO1)[C@@H](C)O` [Epoxomicin, epoxomicin, reference compound], the “Luciferase Activity” value [1, 5] was 0.041, the “Luciferase Activity (fold increase)” value [1, 5] was 1.0 fold and the “Luciferase Activity” value [1, 6] was 0.064. For the same molecule, the “Luciferase Activity (fold increase)” value [1, 6] was 1.6 fold, the “Luciferase Activity” value [1, 7] was 0.098 and the “Luciferase Activity (fold increase)” value [1, 7] was 2.4 fold. For the same molecule, the “Luciferase Activity” value [1, 8] was 0.142, the “Luciferase Activity (fold increase)” value [1, 8] was 3.5 fold and the “Luciferase Activity” value [1, 9] was 0.153. The “Luciferase Activity (fold increase)” value [1, 9] was 3.7 fold, the “Luciferase Activity” value [1, 10] was 0.120 and the “Luciferase Activity (fold increase)” value [1, 10] was 2.9 fold. For the same molecule, the “Effect of 24 hour conditioned medium of treated MG-63 cells on the reporter construct” value [2] was “CM stimulated the reporter construct in a concentration-dependent manner”.

B1: BMP-4: Bone morphogenetic protein 4 (protein, UniProt P12644 293-408, looked up)
Bone morphogenetic protein 4: SPKHHSQRARKKNKNCRRHSLYVDFSDVGWNDWIVAPPGYQAFYCHGDCPFPLADHLNSTNHAIVQTLVNSVNSSIPKACCVPTELSAISMLYLDEYDKVVLKNYQEMVVEGCGCR
With B1 the “Effect on luciferase activity of the reporter construct” value (from here on “Effect on luciferase activity”) ([1]; 24 hours) was “stimulated luciferase activity in a dose-dependent manner”, the “Luciferase Activity” value [1, 11] was 0.0745 and the “Luciferase Activity (fold increase)” value [1, 11] was 1.6 fold. The “Luciferase Activity” value [1, 12] was 0.111, the “Luciferase Activity (fold increase)” value [1, 12] was 2.3 fold and the “Luciferase Activity” value [1, 13] was 0.141. For the same molecule, the “Luciferase Activity (fold increase)” value [1, 13] was 2.9 fold, the “Luciferase Activity” value [1, 14] was 0.384 and the “Luciferase Activity (fold increase)” value [1, 14] was 8.0 fold. The “Luciferase Activity” value [1, 15] was 0.597, the “Luciferase Activity (fold increase)” value [1, 15] was 12.4 fold and the “Luciferase Activity” value [1, 16] was 0.821. The “Luciferase Activity (fold increase)” value [1, 16] was 17.1 fold, the “Luciferase Activity” value [1, 17] was 1.064 and the “Luciferase Activity (fold increase)” value [1, 17] was 22.2 fold. For the same molecule, the “Luciferase Activity” value [1, 18] was 1.256, the “Luciferase Activity (fold increase)” value [1, 18] was 26.2 fold and the “Luciferase Activity” value [1, 19] was 1.534. The “Luciferase Activity (fold increase)” value [1, 19] was 32.0 fold, the “Luciferase Activity” value [1, 20] was 1.576 and the “Luciferase Activity (fold increase)” value [1, 20] was 32.8 fold. The “Luciferase Activity” value [1, 21] was 1.887, the “Luciferase Activity (fold increase)” value [1, 21] was 39.3 fold and the “Luciferase Activity” value [1, 22] was 2.166. The “Luciferase Activity (fold increase)” value [1, 22] was 45.1 fold, the “Effect on luciferase activity” value [3] was “stimulated luciferase activity in a dose-dependent manner” and the Minimal effective dose [4] was 0.1 to 0.2 ng/mL.

B2: BMP-7: Bone morphogenetic protein 7 (protein, UniProt P18075 293-431, looked up)
Bone morphogenetic protein 7: STGSKQRSQNRSKTPKNQEALRMANVAENSSSDQRQACKKHELYVSFRDLGWQDWIIAPEGYAAYYCEGECAFPLNSYMNATNHAIVQTLVHFINPETVPKPCCAPTQLNAISVLYFDDSSNVILKKYRNMVVRACGCH
With B2 the “Effect on luciferase activity” value ([1]; 24 hours) was “stimulated luciferase activity in a dose-dependent manner”, the “Luciferase Activity” value [1, 23] was 0.076 and the “Luciferase Activity (fold increase)” value [1, 23] was 1.1 fold. For the same molecule, the “Luciferase Activity” value [1, 24] was 0.090, the “Luciferase Activity (fold increase)” value [1, 24] was 1.3 fold and the “Luciferase Activity” value [1, 25] was 0.108. The “Luciferase Activity (fold increase)” value [1, 25] was 1.6 fold, the “Luciferase Activity” value [1, 26] was 0.148 and the “Luciferase Activity (fold increase)” value [1, 26] was 2.2 fold. The “Luciferase Activity” value [1, 27] was 0.216, the “Luciferase Activity (fold increase)” value [1, 27] was 3.2 fold and the “Luciferase Activity” value [1, 28] was 0.374. For the same molecule, the “Luciferase Activity (fold increase)” value [1, 28] was 5.6 fold, the “Luciferase Activity” value [1, 29] was 0.813 and the “Luciferase Activity (fold increase)” value [1, 29] was 12.1 fold. For the same molecule, the “Luciferase Activity” value [1, 30] was 1.425, the “Luciferase Activity (fold increase)” value [1, 30] was 21.3 fold and the “Luciferase Activity” value [1, 31] was 2.224. The “Luciferase Activity (fold increase)” value [1, 31] was 33.2 fold, the “Luciferase Activity” value [1, 32] was 3.404 and the “Luciferase Activity (fold increase)” value [1, 32] was 50.8 fold. For the same molecule, the “Effect on luciferase activity” value [3] was “stimulated luciferase activity in a dose-dependent manner” and the Minimal effective dose [4] was 15 to 30 ng/mL.
